Results as given in patent US20200230168, “NUCLEIC ACID OLIGOMERS AND USES THEREFOR” (Queensland University of Technology, published 2020).

Target: THOC4 (ALYREF) (UniProt Q86V81 Q86V81:2-257)
Assay: SPR

Row | Binder | binding signal
1 | CACGUACCUUAGUGCCUCAC (ssRNA, 2'-OMe all, ZEN at both ends) [Open_L ZEN (DKLS665920)] | -0.15 normalized Rmax
2 | GAGGCAGCAGUACGACGG (ssRNA, 2'-OMe all, full PS) [LSA_ATG 5' truncation 18 nt] | 1.06 normalized Rmax
3 | UCUUAUGUUUCCGAACCGUU (ssRNA, 2'-OMe all, full PS) [DKLS370480 (SEQ 25)] | 0.34 normalized Rmax
4 | UACCGCGUGCGACCCUCU (ssRNA, full PS) [DKLS371273 (SEQ 7)] | 0.81 normalized Rmax
5 | ACAUGGUUCCCCGACAGUGUUA (ssRNA, 2'-OMe all, full PS) [DKLS687118 (SEQ 35)] | 0.72 normalized Rmax
6 | GUGCAUGGAAUCACGGAG (ssRNA, 2'-OMe all, full PS) [Open_A 3' truncation 18 nt] | 0.39 normalized Rmax
7 | GGUCGUAAUACUUUCACUUA (ssRNA, 2'-OMe all, full PS) [DKLS629224 (SEQ 12)] | 0.47 normalized Rmax
8 | CUGCCUAAGUAAAAAGUGUAAAC (ssRNA, 2'-OMe all, full PS) [DKLS687118 (SEQ 15)] | 0.51 normalized Rmax
9 | GUGCAUGGAAUCACGGA (ssRNA, 2'-OMe all, full PS) [Open_A 3' truncation 17 nt] | 1 normalized Rmax
10 | CGGACUUGCCU (ssRNA, 2'-OMe all, full PS) [In3E3 5' truncation 11 nt] | 0.01 normalized Rmax
11 | CAGAGGCAGCAGUACGAC (ssRNA, 2'-OMe all, full PS) [LSA_ATG 3' truncation 18 nt] | 0.71 normalized Rmax
12 | GAGGCAGCAGUACGAC (ssRNA, 2'-OMe all, full PS) [LSA_ATG both-end truncation 16 nt] | 0.44 normalized Rmax
13 | AGAGGCAGCAGUACGACGG (ssRNA, 2'-OMe all, full PS) [LSA_ATG 5' truncation 19 nt] | 1.1 normalized Rmax
14 | GGCAGCAGUACGACGG (ssRNA, 2'-OMe all, full PS) [LSA_ATG 5' truncation 16 nt] | 0.49 normalized Rmax
15 | CAGAGGCAGCAGUACGACG (ssRNA, 2'-OMe all, full PS) [LSA_ATG 3' truncation 19 nt] | 0.92 normalized Rmax
16 | GUGCAUGGAAUCACGGAGU (ssRNA, 2'-OMe all, full PS) [Open_A 3' truncation 19 nt] | 0.47 normalized Rmax
17 | CAGAGGCAGCAGUACG (ssRNA, 2'-OMe all, full PS) [LSA_ATG 3' truncation 16 nt] | 0.53 normalized Rmax
18 | ACAUCGUUACCAGACAGUGUUA (ssRNA, 2'-OMe all, full PS) [DKLS687764 (SEQ 34)] | 0.75 normalized Rmax
19 | UCAAGGAAGAUGGCAUUUCU (ssRNA, 2'-OMe all, full PS) [DKLS687764 (SEQ 14)] | 0.55 normalized Rmax
20 | UCUCCCAGCAUGUGCCAU (ssRNA, full PS) [DKLS658030 (SEQ 8)] | 0.52 normalized Rmax
21 | AGGCAGCAGUACGA (ssRNA, 2'-OMe all, full PS) [LSA_ATG both-end truncation 14 nt] | 1.02 normalized Rmax

Row | Binder | binding signal
22 | GUCUCCGUCGUCAUGCUGCC (ssRNA, 2'-OMe all, full PS) [ASO_ATG (DKLS421748)] | 0.33 normalized Rmax
23 | AGAGGCAGCAGUACGACG (ssRNA, 2'-OMe all, full PS) [LSA_ATG both-end truncation 18 nt] | 0.81 normalized Rmax
24 | GUGCAUGGAAUCACGG (ssRNA, 2'-OMe all, full PS) [Open_A 3' truncation 16 nt] | 0.29 normalized Rmax
25 | UAAGCUGUUCUAUGUGUU (ssRNA, 2'-OMe all, full PS) [DKLS463500 (SEQ 23)] | 0.32 normalized Rmax
26 | CAGCAGCAGAGUAUUUAUCAU (ssRNA, 2'-OMe all, full PS) [DKLS481254 (SEQ 31)] | 0.46 normalized Rmax
27 | CAGCAGCAGAGUCUUCAUCAU (ssRNA, 2'-OMe all, full PS) [DKLS354527 (SEQ 21)] | 0.37 normalized Rmax
28 | GCCGGACUUGCCU (ssRNA, 2'-OMe all, full PS) [In3E3 5' truncation 13 nt] | 0.01 normalized Rmax
29 | UGUCAUAUUCCUGGAUCCUU (ssRNA, 2'-OMe all, full PS) [DKLS684387 (SEQ 29)] | 0.87 normalized Rmax
30 | UGCUAUCUUAUCACCUUUAG (ssRNA, 2'-OMe all, full PS) [DKLS331584 (SEQ 26)] | 0.15 normalized Rmax
31 | GCAGCAGUACGACGG (ssRNA, 2'-OMe all, full PS) [LSA_ATG 5' truncation 15 nt] | 0.31 normalized Rmax
32 | GAGUAAACAUUCUGUGUGGAGUC (ssRNA, 2'-OMe all, full PS) [DKLS965031 (SEQ 17)] | 0.64 normalized Rmax
33 | AGGCAGCAGUACGACGG (ssRNA, 2'-OMe all, full PS) [LSA_ATG 5' truncation 17 nt] | 0.8 normalized Rmax
34 | UCCUGGAUCCUUCACCAAUG (ssRNA, 2'-OMe all, full PS) [DKLS687192 (SEQ 28)] | 0.76 normalized Rmax
35 | CAGAGGCAGCAGUACGA (ssRNA, 2'-OMe all, full PS) [LSA_ATG 3' truncation 17 nt] | 1.46 normalized Rmax
36 | GGCGAAUGAGACUUCUCUUA (ssRNA, 2'-OMe all, full PS) [DKLS693540 (SEQ 27)] | 0.89 normalized Rmax
37 | UCUCCCAGCAUGUGCCAU (ssRNA, 2'-OMe all, full PS) [DKLS832163 (SEQ 11)] | 0.33 normalized Rmax
38 | GCUCCAGCAUCUGCUGCUUC (ssRNA, 2'-OMe all, full PS) [DKLS491049 (SEQ 32)] | 0.26 normalized Rmax
39 | CCAUCUGUAAUUACAAAAUUAAA (ssRNA, 2'-OMe all, full PS) [DKLS765774 (SEQ 16)] | 0.97 normalized Rmax
40 | GGGACGCGGCGCUCGGUCAU (ssRNA, 2'-OMe all, full PS) [DKLS951212 (SEQ 30)] | 1.35 normalized Rmax
41 | UGUGCUAUUCUGUGAAUU (ssRNA, 2'-OMe all, full PS) [DKLS484655 (SEQ 22)] | 0.22 normalized Rmax

Target: hSSB1 (Homo sapiens, UniProt Q9BQ15 Q9BQ15:1-211)
Sequence (Q9BQ15 whole entry, one chain of several): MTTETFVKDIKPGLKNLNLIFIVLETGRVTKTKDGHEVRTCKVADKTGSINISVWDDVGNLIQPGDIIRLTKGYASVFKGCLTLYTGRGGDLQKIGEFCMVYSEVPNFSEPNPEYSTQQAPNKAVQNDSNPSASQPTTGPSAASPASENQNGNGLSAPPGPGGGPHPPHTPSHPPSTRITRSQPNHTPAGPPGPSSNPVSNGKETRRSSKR
Assay: SPR

Row | Binder | binding signal
42 | GAGGCAGCAGUACGACGG (ssRNA, 2'-OMe all, full PS) [LSA_ATG 5' truncation 18 nt] | 0.77 normalized Rmax
43 | UCUUAUGUUUCCGAACCGUU (ssRNA, 2'-OMe all, full PS) [DKLS370480 (SEQ 25)] | 0.69 normalized Rmax
44 | UACCGCGUGCGACCCUCU (ssRNA, full PS) [DKLS371273 (SEQ 7)] | 1.05 normalized Rmax
45 | ACAUGGUUCCCCGACAGUGUUA (ssRNA, 2'-OMe all, full PS) [DKLS687118 (SEQ 35)] | 1.7 normalized Rmax
46 | GUGCAUGGAAUCACGGAG (ssRNA, 2'-OMe all, full PS) [Open_A 3' truncation 18 nt] | 1.03 normalized Rmax
47 | GGUCGUAAUACUUUCACUUA (ssRNA, 2'-OMe all, full PS) [DKLS629224 (SEQ 12)] | 0.97 normalized Rmax
48 | CUGCCUAAGUAAAAAGUGUAAAC (ssRNA, 2'-OMe all, full PS) [DKLS687118 (SEQ 15)] | 1.21 normalized Rmax
49 | GUGCAUGGAAUCACGGA (ssRNA, 2'-OMe all, full PS) [Open_A 3' truncation 17 nt] | 2.06 normalized Rmax
50 | CGGACUUGCCU (ssRNA, 2'-OMe all, full PS) [In3E3 5' truncation 11 nt] | 0.09 normalized Rmax
51 | CAGAGGCAGCAGUACGAC (ssRNA, 2'-OMe all, full PS) [LSA_ATG 3' truncation 18 nt] | 0.64 normalized Rmax
52 | GAGGCAGCAGUACGAC (ssRNA, 2'-OMe all, full PS) [LSA_ATG both-end truncation 16 nt] | 0.67 normalized Rmax
53 | AGAGGCAGCAGUACGACGG (ssRNA, 2'-OMe all, full PS) [LSA_ATG 5' truncation 19 nt] | 1.02 normalized Rmax
54 | GGCAGCAGUACGACGG (ssRNA, 2'-OMe all, full PS) [LSA_ATG 5' truncation 16 nt] | 0.64 normalized Rmax
55 | CAGAGGCAGCAGUACGACG (ssRNA, 2'-OMe all, full PS) [LSA_ATG 3' truncation 19 nt] | 0.78 normalized Rmax
56 | GUGCAUGGAAUCACGGAGU (ssRNA, 2'-OMe all, full PS) [Open_A 3' truncation 19 nt] | 1.24 normalized Rmax
57 | CAGAGGCAGCAGUACG (ssRNA, 2'-OMe all, full PS) [LSA_ATG 3' truncation 16 nt] | 0.46 normalized Rmax
58 | ACAUCGUUACCAGACAGUGUUA (ssRNA, 2'-OMe all, full PS) [DKLS687764 (SEQ 34)] | 1.47 normalized Rmax
59 | UCAAGGAAGAUGGCAUUUCU (ssRNA, 2'-OMe all, full PS) [DKLS687764 (SEQ 14)] | 1.12 normalized Rmax
60 | UCUCCCAGCAUGUGCCAU (ssRNA, full PS) [DKLS658030 (SEQ 8)] | 0.51 normalized Rmax
61 | AGGCAGCAGUACGA (ssRNA, 2'-OMe all, full PS) [LSA_ATG both-end truncation 14 nt] | 1.05 normalized Rmax
62 | GUCUCCGUCGUCAUGCUGCC (ssRNA, 2'-OMe all, full PS) [ASO_ATG (DKLS421748)] | 0.64 normalized Rmax

Row | Binder | binding signal
63 | AGAGGCAGCAGUACGACG (ssRNA, 2'-OMe all, full PS) [LSA_ATG both-end truncation 18 nt] | 0.96 normalized Rmax
64 | GUGCAUGGAAUCACGG (ssRNA, 2'-OMe all, full PS) [Open_A 3' truncation 16 nt] | 0.66 normalized Rmax
65 | UAAGCUGUUCUAUGUGUU (ssRNA, 2'-OMe all, full PS) [DKLS463500 (SEQ 23)] | 0.74 normalized Rmax
66 | CAGCAGCAGAGUAUUUAUCAU (ssRNA, 2'-OMe all, full PS) [DKLS481254 (SEQ 31)] | 1.1 normalized Rmax
67 | CAGCAGCAGAGUCUUCAUCAU (ssRNA, 2'-OMe all, full PS) [DKLS354527 (SEQ 21)] | 0.91 normalized Rmax
68 | CAGAGGCAGCAGUACGACGG (ssRNA, 2'-OMe all, ZEN at both ends) [LSA_ATG ZEN (DKLS649218)] | 0.15 normalized Rmax
69 | GCCGGACUUGCCU (ssRNA, 2'-OMe all, full PS) [In3E3 5' truncation 13 nt] | 0.22 normalized Rmax
70 | UGUCAUAUUCCUGGAUCCUU (ssRNA, 2'-OMe all, full PS) [DKLS684387 (SEQ 29)] | 1.38 normalized Rmax
71 | UGCUAUCUUAUCACCUUUAG (ssRNA, 2'-OMe all, full PS) [DKLS331584 (SEQ 26)] | 0.48 normalized Rmax
72 | GCAGCAGUACGACGG (ssRNA, 2'-OMe all, full PS) [LSA_ATG 5' truncation 15 nt] | 0.46 normalized Rmax
73 | GAGUAAACAUUCUGUGUGGAGUC (ssRNA, 2'-OMe all, full PS) [DKLS965031 (SEQ 17)] | 1.35 normalized Rmax
74 | AGGCAGCAGUACGACGG (ssRNA, 2'-OMe all, full PS) [LSA_ATG 5' truncation 17 nt] | 0.68 normalized Rmax
75 | UCCUGGAUCCUUCACCAAUG (ssRNA, 2'-OMe all, full PS) [DKLS687192 (SEQ 28)] | 1.08 normalized Rmax
76 | CAGAGGCAGCAGUACGA (ssRNA, 2'-OMe all, full PS) [LSA_ATG 3' truncation 17 nt] | 1.19 normalized Rmax
77 | GGCGAAUGAGACUUCUCUUA (ssRNA, 2'-OMe all, full PS) [DKLS693540 (SEQ 27)] | 1.64 normalized Rmax
78 | UCUCCCAGCAUGUGCCAU (ssRNA, 2'-OMe all, full PS) [DKLS832163 (SEQ 11)] | 0.31 normalized Rmax
79 | GCUCCAGCAUCUGCUGCUUC (ssRNA, 2'-OMe all, full PS) [DKLS491049 (SEQ 32)] | 0.65 normalized Rmax
80 | CCAUCUGUAAUUACAAAAUUAAA (ssRNA, 2'-OMe all, full PS) [DKLS765774 (SEQ 16)] | 1.93 normalized Rmax
81 | GGGACGCGGCGCUCGGUCAU (ssRNA, 2'-OMe all, full PS) [DKLS951212 (SEQ 30)] | 2.13 normalized Rmax
82 | UGUGCUAUUCUGUGAAUU (ssRNA, 2'-OMe all, full PS) [DKLS484655 (SEQ 22)] | 0.43 normalized Rmax
